# In US20260151494A1 (ARO BIOTHERAPEUTICS, published 2026):
# Numbering of substitutions follows the chain as printed.
# B1: CD71-binding FN3 domain of SEQ ID NO: 449 (designed binder)
# chain: MLPAPKNLVVSRVTEDSARLSWTAPDAAFDSFYIAYQELSLWGEAIVLTVPGSERSYDLTGLKPGTEYNVTIQGVKGGFPSLPLAAQFTT
# B2: CD71-binding FN3 domain of SEQ ID NO: 453 (designed binder)
# chain: MLPAPKNLVVSRVTEDSARLSWTAQDAAFDSFFIGYLEPQPPGEAIALLVPGSERSYDLTGLKPGTEYNVTIQGVKGGFPSHPLSASFTT
# B3: CD71-binding FN3 domain of SEQ ID NO: 452 (designed binder)
# chain: B2 chain with Q25P, A47H, L49Q, H82I, S85V, S87Q
# B4: CD71-binding FN3 domain of SEQ ID NO: 454 (designed binder)
# chain: B2 chain with Q25P, A47N, L49T, H82Y, S85Q
# B5: CD71-binding FN3 domain of SEQ ID NO: 465 (designed binder)
# chain: B2 chain with Q25P, A47D, L49Y, H82E, S85W, S87D
# B6: CD71-binding FN3 domain of SEQ ID NO: 460 (designed binder)
# chain: B2 chain with Q25P, A47S, L49Y, L59Q, H82D, S87R
# B7: CD71-binding FN3 domain of SEQ ID NO: 450 (designed binder)
# chain: B2 chain with Q25P, A47S, L49F, H82E, S85A, S87K
# B8: CD71-binding FN3 domain of SEQ ID NO: 461 (designed binder)
# chain: B2 chain with Q25P, A47G, L49F, H82M, A86P, S87I
# B9: CD71-binding FN3 domain of SEQ ID NO: 469 (designed binder)
# chain: B2 chain with Q25P, A47H, L49Y, H82L, S85V, S87T
# B10: CD71-binding FN3 domain of SEQ ID NO: 459 (designed binder)
# chain: B2 chain with Q25P, G35R, A47H, L49S, H82M, S85Y, S87I
# B11: CD71-binding FN3 domain of SEQ ID NO: 464 (designed binder)
# chain: B2 chain with Q25P, A47Q, L49F, H82T, S85V
# B12: CD71-binding FN3 domain of SEQ ID NO: 457 (designed binder)
# chain: B2 chain with Q25P, A47V, H82A, S85V, S87T
# B13: CD71-binding FN3 domain of SEQ ID NO: 462 (designed binder)
# chain: B2 chain with Q25P, A47H, L49Q, H82V, S85H, S87R
# B14: CD71-binding FN3 domain of SEQ ID NO: 467 (designed binder)
# chain: B2 chain with Q25P, A47Q, H82D, S85V, S87Y, F88S
# B15: CD71-binding FN3 domain of SEQ ID NO: 451 (designed binder)
# chain: B2 chain with Q25P, A47G, H82I, S85V, S87D
# B16: CD71-binding FN3 domain of SEQ ID NO: 456 (designed binder)
# chain: B2 chain with Q25P, L49Y, S85Q, S87H
# Target: T1, apical domain of human CD71 (human, UniProt P02786 189-383, limits assumed)
# T1 construct: domain: apical domain; Screen 4 panned on human apical domains, the ELISA text says only 'apical domain'
# Assay: primary ELISA; also: test concentration or dose not given here
# T1 sequence (P02786 189-383 limits assumed): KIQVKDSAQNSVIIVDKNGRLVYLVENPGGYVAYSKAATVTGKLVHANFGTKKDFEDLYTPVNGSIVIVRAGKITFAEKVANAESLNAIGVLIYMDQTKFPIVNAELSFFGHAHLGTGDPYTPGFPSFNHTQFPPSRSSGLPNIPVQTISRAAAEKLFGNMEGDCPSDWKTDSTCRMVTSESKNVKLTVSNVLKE
row,Binder,RLU [RLU]
1,B1,6.51e+06
2,B2,5.12e+06
3,B3,4.23e+06
4,B4,4.2e+06
5,B5,4.15e+06
6,B6,2.8e+06
7,B7,6.26e+06
8,B8,5.35e+06
9,B9,5.56e+06
10,B10,2.61e+06
11,B11,5.68e+06
12,B12,5.78e+06
13,B13,3.28e+06
14,B14,2e+06
15,B15,6.08e+06
16,B16,4.31e+06

# Target: T2, human CD71 extracellular domain (human, UniProt P02786 89-760, biotinylated)
# T2 construct: also called hCD71; CD71-ECD
# Assay: primary ELISA; also: test concentration or dose not given here
# T2 sequence (P02786 89-760): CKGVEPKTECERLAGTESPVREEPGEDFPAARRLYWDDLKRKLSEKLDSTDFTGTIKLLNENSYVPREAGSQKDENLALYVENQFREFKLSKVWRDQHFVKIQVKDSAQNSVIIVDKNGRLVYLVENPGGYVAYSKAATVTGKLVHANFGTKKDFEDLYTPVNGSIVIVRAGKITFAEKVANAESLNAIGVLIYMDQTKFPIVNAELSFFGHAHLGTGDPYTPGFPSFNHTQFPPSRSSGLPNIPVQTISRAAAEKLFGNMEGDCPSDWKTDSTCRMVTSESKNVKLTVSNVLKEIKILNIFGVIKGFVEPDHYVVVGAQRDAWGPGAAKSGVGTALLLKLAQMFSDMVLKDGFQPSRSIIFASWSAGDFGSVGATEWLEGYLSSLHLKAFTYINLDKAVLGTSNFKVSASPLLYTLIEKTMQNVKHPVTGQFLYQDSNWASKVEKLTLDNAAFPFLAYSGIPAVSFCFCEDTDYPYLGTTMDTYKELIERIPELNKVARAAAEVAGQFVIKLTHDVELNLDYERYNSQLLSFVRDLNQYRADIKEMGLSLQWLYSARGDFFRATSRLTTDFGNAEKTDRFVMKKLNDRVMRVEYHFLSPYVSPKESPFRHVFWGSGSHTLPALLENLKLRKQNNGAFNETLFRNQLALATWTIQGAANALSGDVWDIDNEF
row,Binder,RLU [RLU]
1,B1,6.75e+06
2,B2,4.95e+06
3,B3,5.24e+06
4,B4,4.18e+06
5,B5,3.86e+06
6,B6,2.69e+06
7,B7,4.1e+06
8,B8,3.77e+06
9,B9,5.4e+06
10,B10,2.5e+06
11,B11,4.94e+06
12,B12,5.54e+06
13,B13,2.83e+06
14,B14,1.18e+06
15,B15,5.23e+06
16,B16,4.5e+06

# Target: T1, apical domain of human CD71
# Assay: primary ELISA, RLU over HSA
row,Binder,Apical domain:HSA
1,B1,66
2,B2,147
3,B3,71
4,B4,227
5,B5,138
6,B6,148
7,B7,253
8,B8,166
9,B9,75
10,B10,199
11,B11,160
12,B12,53
13,B13,88
14,B14,45
15,B15,151
16,B16,289

# Target: T2, human CD71 extracellular domain
# Assay: primary ELISA, RLU over HSA
row,Binder,hCD71:HSA
1,B1,69
2,B2,142
3,B3,88
4,B4,226
5,B5,129
6,B6,143
7,B7,166
8,B8,117
9,B9,73
10,B10,191
11,B11,140
12,B12,51
13,B13,76
14,B14,27
15,B15,129
16,B16,302
